Laboratory results: paper doi:10.1101/790667 (bioRxiv, 2019)
* marks the point of attachment. Dansyl = CN(C)c1cccc2c(S(=O)(=O)*)cccc12

T1: human CASK PDZ domain (residues 487-572) (human, UniProt O14936 487-572)
T1 sequence (looked up): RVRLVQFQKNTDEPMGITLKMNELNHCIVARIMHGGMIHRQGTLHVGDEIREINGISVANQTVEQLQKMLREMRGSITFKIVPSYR

B1: Syndecan1 peptide (residues 303-310) (peptide)
peptide: Dansyl-TKQEEFYA-OH
SMILES: C[C@H](NC(=O)[C@H](Cc1ccc(O)cc1)NC(=O)[C@H](Cc1ccccc1)NC(=O)[C@H](CCC(=O)O)NC(=O)[C@H](CCC(=O)O)NC(=O)[C@H](CCC(N)=O)NC(=O)[C@H](CCCCN)NC(=O)[C@@H](NS(=O)(=O)c1cccc2c(N(C)C)cccc12)[C@@H](C)O)C(=O)O
B2: Caspr4 peptide (residues 1,301-1,308) (peptide)
peptide: Dansyl-ENQKEYFF-OH
SMILES: CN(C)c1cccc2c(S(=O)(=O)N[C@@H](CCC(=O)O)C(=O)N[C@@H](CC(N)=O)C(=O)N[C@@H](CCC(N)=O)C(=O)N[C@@H](CCCCN)C(=O)N[C@@H](CCC(=O)O)C(=O)N[C@@H](Cc3ccc(O)cc3)C(=O)N[C@@H](Cc3ccccc3)C(=O)N[C@@H](Cc3ccccc3)C(=O)O)cccc12
B3: Neurexin peptide (residues 1,470-1,477) (peptide)
peptide: Dansyl-NKDKEYYV-OH
SMILES: CC(C)[C@H](NC(=O)[C@H](Cc1ccc(O)cc1)NC(=O)[C@H](Cc1ccc(O)cc1)NC(=O)[C@H](CCC(=O)O)NC(=O)[C@H](CCCCN)NC(=O)[C@H](CC(=O)O)NC(=O)[C@H](CCCCN)NC(=O)[C@H](CC(N)=O)NS(=O)(=O)c1cccc2c(N(C)C)cccc12)C(=O)O

Each binder was assayed against T1, human CASK PDZ domain (residues 487-572) (assay: differential scanning fluorimetry).

Binding result, binds:
B1, B2, B3
